In publication PMC10643666:

Biological target: ZIKV envelope (E) protein, HA-tagged
Test: co-immunoprecipitation (HA-specific IP) with densitometry of immunoblots
Settings: HEK 293T cells, lysed 18 h after transfection; n = 4; parent: est. 0.93; read off a plot

In order of falling ratio to parent (fold E; mut:WT):
1. ZIKV prM protein, wild type K60L; Y63A  1.7
2. ZIKV prM protein, wild type R38L; F42A  1.6
3. ZIKV prM protein, wild type R38L; F42S  0.93
4. ZIKV prM protein, wild type K60L; Y63S  0.9
